This is an account of results in PMC7615752, “The histone chaperone SPT2 regulates chromatin structure and function in Metazoa” (Nature structural & molecular biology, 2023).

This experiment concerns the target T1, recombinant histone H3.1–H4 tetramer (NEB, M2509S) (UniProt P68431 1-136; P62805 1-103).
T1 construct: histone H3.1 of the recombinant H3.1–H4 tetramer; histone H4 of the recombinant H3.1–H4 tetramer; As I recall the NEB product is the human tetramer; also called H3–H4; histone H3–H4; source: bought: NEB, M2509S (recombinant); copies: 2 + 2
The experiment is described as follows: pull-down; 20 pmol recombinant H3.1–H4 tetramer covalently coupled to NHS-activated magnetic beads; 5 pmol full-length SPT2 in 20 mM Tris–HCl pH 8.0, 500 mM NaCl, 0.1% Triton X-100, 0.1 mM TCEP, 1.5 h at 4 °C; washes with 700 or 800 mM NaCl. Particulars: both partners purified.

B1: HsSPT2, full-length (human SPT2), His6-tagged (natural protein)
chain: MDFREILMIASKGQGVNNVPKRYSLAVGPPKKDPKVKGVQSAAVQAFLKRKEEELRRKALEEKRRKEELVKKRIELKHDKKARAMAKRTKDNFHGYNGIPIEEKSKKRQATESHTSQGTDREYEMEEENEFLEYNHAESEQEYEEEQEPPKVESKPKVPLKSAPPPMNFTDLLRLAEKKQFEPVEIKVVKKSEERPMTAEELREREFLERKHRRKKLETDGKLPPTVSKKAPSQKESVGTKLSKGSGDRHPSSKGMPLPHAEKKSRPSMANEKHLALSSSKSMPGERIKAGSGNSSQPSLREGHDKPVFNGAGKPHSSTSSPSVPKTSASRTQKSAVEHKAKKSLSHPSHSRPGPMVTPHNKAKSPGVRQPGSSSSSAPGQPSTGVARPTVSSGPVPRRQNGSSSSGPERSISGSKKPTNDSNPSRRTVSGTCGPGQPASSSGGPGRPISGSVSSARPLGSSRGPGRPVSSPHELRRPVSGLGPPGRSVSGPGRSISGSIPAGRTVSNSVPGRPVSSLGPGQTVSSSGPTIKPKCTVVSETISSKNIISRSSNGQMNGMKPPLSGYRAAQGPQRLPFPTGYKRQREYEEEDDDDDEYDSEMEDFIEDEGEPQEEISKHIREIFGYDRKKYKDESDYALRYMESSWKEQQKEEAKSLRLGMQEDLEEMRREEEEMQRRRAKKLKRR
notes: human SPT2 (gene SPTY2D1), full length; source: E. coli Rosetta 2(DE3) pLysS BL21, purified (NiNTA, Flag M2 beads, Ulp1 cleavage); not shown: 2xFlag-SUMO, N-terminal, cleaved; His6, C-terminal, kept
For B1, the binding result is recorded as “binds”.
